Reference: patent US20260297176 (published 2026)

T1: mouse IL-11 (mouse, UniProt P47873)
T1 chain: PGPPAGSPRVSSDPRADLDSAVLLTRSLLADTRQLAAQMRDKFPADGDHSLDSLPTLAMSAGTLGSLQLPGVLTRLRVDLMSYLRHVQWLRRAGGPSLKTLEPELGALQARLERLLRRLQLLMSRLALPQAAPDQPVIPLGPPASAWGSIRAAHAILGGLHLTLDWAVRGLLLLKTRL

T2: human IL-11 (human)
T2 chain: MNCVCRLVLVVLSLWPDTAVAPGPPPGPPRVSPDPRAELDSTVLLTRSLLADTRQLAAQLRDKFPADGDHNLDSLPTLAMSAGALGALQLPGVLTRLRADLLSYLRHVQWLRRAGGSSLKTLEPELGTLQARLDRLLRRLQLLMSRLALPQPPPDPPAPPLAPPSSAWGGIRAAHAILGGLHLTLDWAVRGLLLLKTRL


How the values were obtained:
mouse IL-11 [1] = target: T1, mouse IL-11; experiment: SPR
human IL-11 [2] = target: T2, human IL-11; experiment: SPR
mouse IL-11 [3] = target: T1, mouse IL-11; experiment: SPR
human IL-11 [4] = target: T2, human IL-11; experiment: SPR 25C
human IL-11 [5] = target: T2, human IL-11; experiment: SPR
mouse IL-11 [6] = target: T1, mouse IL-11; experiment: SPR steady state
human IL-11 [7] = target: T2, human IL-11; experiment: SPR

Binder | Kd (mouse IL-11 [1]) [nM] | Kd (human IL-11 [2]) [nM] | Kd (human IL-11 [4]) [nM] | also measured
VH0/VL0 (antibody, V domains shown) VH: QVILKESGPGMLQPSKTLSLTCSFSGFSLSTSGMVVSWIRQPSGKSLEWLAAIDWDGEKYYNPSLKSRLTVSKDTSNTQVFLQITTVDIADTATYYCARSGNYFEYWGQGVIVTVSS VL: DNQMTQSPASLSASLGETVTIECRTSEDIYNALAWYQQKPGKSPQLLIYDANRLHIGVPSRFSGSGSGTQFSLKINSLQSEDVASYFCQQYYDYPNTFGAGTKLELN |  |  | 0.00758 | 
CSJ-A-s-10D10 (antibody, V domains shown) VH: QVQLKESGPGLVQPSQTLSLTCTVSGFSLTNYHVHWVRQPPGKGLEWMGVMWIDGDTSYNSALRSRLSISRDTSKSQVFLKMSSLQTEDTATYYCAREGLNWFAYWGRGTLVTVSS VL: DIQMTQSPASLSVSLEEVVTITCKASQGIDDYLSWYQQKPGKSPQLLISDVTSLADGVPSRFSGSRSGTQYSLKISRPQVDDSGIYYCLQSYSTPYTFGAGTKLELK | 0.875 | 0.424 |  | 
GVH5 (D54E)/GVL5 (antibody, V domains shown) VH: QITLKESGPTLVKPTQTLTLTCTFSGFSLSTSGMVVGWIRQPPGKALEWLAAIDWEGEKYYSPSLKSRLTITKDTSKNQVVLTMTNMDPVDTATYYCARSGNYFEYWGQGTLVTVSS VL: DIQMTQSPSSLSASVGDRVTITCRTSEDIYNALAWYQQKPGKAPQLLIYDANRLHIGVPSRFSGSGSGTDFTLTISSLQPEDFATYYCQQYYDYPNTFGQGTKLEIK |  |  | 0.0966 | 
GVH5 (D54E)/CVL3 + YTE (antibody, V domains shown) VH: QITLKESGPTLVKPTQTLTLTCTFSGFSLSTSGMVVGWIRQPPGKALEWLAAIDWEGEKYYSPSLKSRLTITKDTSKNQVVLTMTNMDPVDTATYYCARSGNYFEYWGQGTLVTVSS VL: DNQMTQSPSSLSASVGDRVTITCRTSEDIYNALAWYQQKPGKAPQLLIYDANRLHIGVPDRFSGSGSGTDFTLTISSLQAEDVAVYYCQQYYDYPNTFGQGTKLEIK |  |  | 0.00989 | 
GVH5 (D54E)/CVL3 (antibody, V domains shown) VH: QITLKESGPTLVKPTQTLTLTCTFSGFSLSTSGMVVGWIRQPPGKALEWLAAIDWEGEKYYSPSLKSRLTITKDTSKNQVVLTMTNMDPVDTATYYCARSGNYFEYWGQGTLVTVSS VL: DNQMTQSPSSLSASVGDRVTITCRTSEDIYNALAWYQQKPGKAPQLLIYDANRLHIGVPDRFSGSGSGTDFTLTISSLQAEDVAVYYCQQYYDYPNTFGQGTKLEIK |  |  | 0.0181 | 
CVH4 (D54E)/CVL3 (antibody, V domains shown) VH: QVQLQESGPGLVKPSQTLSLTCSFSGFSLSTSGMVVSWIRQPPGKALEWLAAIDWEGEKYYNPSLKSRLTVTKDTSKNQVVLTMTNMDPVDTATYYCARSGNYFEYWGQGTLVTVSS VL: DNQMTQSPSSLSASVGDRVTITCRTSEDIYNALAWYQQKPGKAPQLLIYDANRLHIGVPDRFSGSGSGTDFTLTISSLQAEDVAVYYCQQYYDYPNTFGQGTKLEIK |  |  | 0.00748 | 
CVH4 (D54E)/CVL3 + YTE (antibody, V domains shown) VH: QVQLQESGPGLVKPSQTLSLTCSFSGFSLSTSGMVVSWIRQPPGKALEWLAAIDWEGEKYYNPSLKSRLTVTKDTSKNQVVLTMTNMDPVDTATYYCARSGNYFEYWGQGTLVTVSS VL: DNQMTQSPSSLSASVGDRVTITCRTSEDIYNALAWYQQKPGKAPQLLIYDANRLHIGVPDRFSGSGSGTDFTLTISSLQAEDVAVYYCQQYYDYPNTFGQGTKLEIK |  |  | 0.00334 | 
CVH3 (D54E)/CVL3 (antibody, V domains shown) VH: QVQLQESGPGLVKPSQTLSLTCSFSGFSLSTSGMVVSWIRQPPGKALEWLAAIDWEGEKYYNPSLKSRLTVTKDTSNTQVVLTMTNMDPVDTATYYCARSGNYFEYWGQGTLVTVSS VL: DNQMTQSPSSLSASVGDRVTITCRTSEDIYNALAWYQQKPGKAPQLLIYDANRLHIGVPDRFSGSGSGTDFTLTISSLQAEDVAVYYCQQYYDYPNTFGQGTKLEIK |  |  | 0.00501 | 

Second part, led by results:

Kd (mouse IL-11 [1]) [nM] | Kd (human IL-11 [2]) [nM] | Kd (human IL-11 [4]) [nM] | Binder | also measured
0.0502 | 0.0174 |  | CSJ-B-s-3G8 (antibody, V domains shown) VH: QVTLKESGPGMLQPSKTVSLTCSFSGFSMSTSGMVVSWIRQPSGKSLEWLAAIDWDGEKYYNPSLKSRLTVSKDTSNTQVFLKISSVDIADSATYYCARSGNYFDYWGQGVMVTVSS VL: DIQMTQSPASLSASLGETVTIECRASEDIYNGLVWYQQKPGKSPQLLIYDANRLHTGVPSRFSGGGSGTQYSLKINSLQSEDVASYFCQQYYDYPNTFGAGTKLELK | Kd (mouse IL-11 [3]): 0.159 nM
3.77 | 0.145 |  | CSI-s-9B9 (antibody, V domains shown) VH: EVHLQQSGPELVKPGASVKMSCKASGYTFTSYVIHWVKQRPGQGLEWIGNIYPYNDDTNYNEKFKGKATLTSDKSSSTAYMELSSLTSEESAVYFCTRERATYGDLAWFAYWGQGTLVTVSA VL: NIVLTQSPASLAVSLGQRATISCRASENIDSYGNSFMHWYQQKPGQPPKLLIYLASILESGVPARFSGSGSRTDFTLTIDPVEADDAATYYCQQNNEDPYTFGGGTKLEIK | 
 |  | 0.0792 | GVH5 (D54E)/GVL5 + YTE (antibody, V domains shown) VH: QITLKESGPTLVKPTQTLTLTCTFSGFSLSTSGMVVGWIRQPPGKALEWLAAIDWEGEKYYSPSLKSRLTITKDTSKNQVVLTMTNMDPVDTATYYCARSGNYFEYWGQGTLVTVSS VL: DIQMTQSPSSLSASVGDRVTITCRTSEDIYNALAWYQQKPGKAPQLLIYDANRLHIGVPSRFSGSGSGTDFTLTISSLQPEDFATYYCQQYYDYPNTFGQGTKLEIK | 
 |  | 0.00142 | CVH3 (D54E)/CVL3 + YTE (antibody, V domains shown) VH: QVQLQESGPGLVKPSQTLSLTCSFSGFSLSTSGMVVSWIRQPPGKALEWLAAIDWEGEKYYNPSLKSRLTVTKDTSNTQVVLTMTNMDPVDTATYYCARSGNYFEYWGQGTLVTVSS VL: DNQMTQSPSSLSASVGDRVTITCRTSEDIYNALAWYQQKPGKAPQLLIYDANRLHIGVPDRFSGSGSGTDFTLTISSLQAEDVAVYYCQQYYDYPNTFGQGTKLEIK | 
28.2 | 0.0238 |  | CSJ-A-s-2B11 (antibody, V domains shown) VH: QVQLKESGPGLVQPSQTLSLTCTVSGFSLDNYNVHWVRQPTGGGLEWLGGIWTDGITDYTSPLRSRLSISRDTSKSQVFLKMKSLQTEDIATYYCARSYYYSLYYFDYWGQGVMVTVSS VL: DIQMTQSPASLSASLGETVTIECRASEDIYSNLAWYQQKPGDSPQLLIYDAHRLAEGVPSRFSGSGSGTQYSLKINSLHSEDVASYFCQQYDNYNTFGVGTKLDLK | Kd (human IL-11 [5]): 0.0213 nM; Kd (mouse IL-11 [6]): 28.2 nM; Kd (human IL-11 [7]): 0.0214 nM
